Measurements from patent CN114621343A.

Assays:
[1] = molecular target: JEV包膜E蛋白 (Japanese encephalitis virus (strain not stated)); experiment: SPR, Biacore T200; 2G1 captured on CM5 chip, E protein as analyte
[2] = molecular target: JEV病毒抗原 (JEV Beijing-1株) (Japanese encephalitis virus, Beijing-1 strain); experiment: cell-based or functional assay

B1: 乙型脑炎病毒鼠源性单克隆抗体2G1 (antibody, V domains shown)
VH: DVQLQESGLDRVKPSQSLSLTCTVTGYSIISGYSWHWIRQFPGKKLEWMGYIHYSGSATYSPSLKSRISITRDTSKNQFFLQLNSVTTEDTATFYCARGDGSSPYYGMDHWGQGTSVTVSS
VL: DIVLTQSPPSLAVSLGQRATISCRASESVEYSGTGLIHWYQQKPGQPPKLLIYAASSVESGVPARFSGSGSGTDFSLNIHPVEDDDLALYFCQQSRKLPWTFGGGSKLEINR
[1]
  Kd: 16.5 nM
  koff: 7.06e-05 s⁻¹
  kon: 4270 M⁻¹ s⁻¹
[2]
  半数中和浓度(Neut50): 0.149 µg/mL
